# Data taken from patent US20220332829A1 (NANJING SANHOME PHARMACEUTICAL, published 2022).
# T1: human 4Ig-B7-H3-His protein (human, UniProt Q5ZPR3 29-466)
# T1 construct: also called human B7-H3 protein
# T1 sequence: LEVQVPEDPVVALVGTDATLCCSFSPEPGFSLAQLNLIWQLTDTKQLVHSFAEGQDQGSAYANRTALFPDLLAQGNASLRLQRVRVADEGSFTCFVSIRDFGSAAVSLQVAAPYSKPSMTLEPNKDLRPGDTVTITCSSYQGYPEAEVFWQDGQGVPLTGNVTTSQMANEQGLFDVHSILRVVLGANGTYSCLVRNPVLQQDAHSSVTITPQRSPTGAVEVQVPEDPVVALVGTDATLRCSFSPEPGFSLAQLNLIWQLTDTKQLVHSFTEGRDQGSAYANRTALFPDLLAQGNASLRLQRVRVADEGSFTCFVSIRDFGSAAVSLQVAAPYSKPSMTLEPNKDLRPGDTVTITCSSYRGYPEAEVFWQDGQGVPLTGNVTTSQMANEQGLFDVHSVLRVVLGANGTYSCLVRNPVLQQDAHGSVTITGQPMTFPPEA
# B1: hBRCA84D (antibody, human IgG1, kappa, V domains shown)
# VH: EVQLVESGGGLVQPGGSLRLSCAASGFTFSSFGMHWVRQAPGKGLEWVAYISSDSSAIYYADTVKGRFTISRDNAKNSLYLQMNSLRDEDTAVYYCGRGRENIYYGSRLDYWGQGTTVTVSS
# VL: DIQLTQSPSFLSASVGDRVTITCKASQNVDTNVAWYQQKPGKAPKALIYSASYRYSGVPSRFSGSGSGTDFTLTISSLQPEDFATYYCQQYNNYPFTFGQGTKLEIKR
# notes: Humanized antibody from WO2011/109400; also called positive control antibody hBRCA84D; control antibody hBRCA84D
# Assays:
# [1] = target: T2, Cynomolgus B7-H3-His (Sino Biological, Cat. No. 90806-C08H) (cynomolgus monkey); experiment: ELISA, plate coated with cynomolgus B7-H3-His, detection with anti-human IgG HRP, OD450
# T2 construct: Bought reagent; also called cynomolgus monkey B7-H3; monkey B7-H3
# Description: The binding activity of antibodies was analyzed by protein based ELISA. Cynomolgus B7-H3-His (0.5 μg/well, Sino Biological, Cat. No. 90806-C08H) was coated on 96-well ELISA plates. The anti-B7-H3 antibodies of the present disclosure was used as the primary antibody and added to the ELISA plates in 5-fold gradient dilution starting from 2 μg/mL with a total of 8 concentrations: 2,000 ng/mL, 400 ng/mL, 80 ng/mL, 16 ng/mL, 3.2 ng/mL, 0.64 ng/mL, 0.128 ng/mL, and 0.0256 ng/mL respectively. The plates were incubated at 37° C. for 2 h with AB06.12-4P as the positive control antibody. Anti-Human IgG HRP (Jackson, 109-035-003, 1:10,000) was used as the secondary antibody. Color developing solution TMB (3,3′,5,5′-tetramethylbenzidine) was added to the plate, and microplate reader (Thermo, Multiskan FC) was used to read OD450 value after termination of the reaction. EC₅₀ was generated by GraphPad.
# [2] = target: T1, human 4Ig-B7-H3-His protein; experiment: Biacore X100 SPR, 4Ig-B7-H3-His coupled to CM5 chip, antibody injected
# Text: The humanized anti-B7-H3 antibodies prepared in Example 4 were subjected to affinity assay by Biacore. The antigen 4Ig-B7-H3-His was first coupled to the surface of a CM5 chip (GE, Cat. No. BR100012), and the active groups of the uncoupled protein were blocked with ethanolamine. After the baseline was stable, the hu39-01, hu65-13, and hBRCA84D antibodies were respectively diluted in equal proportions. The diluted antibodies of each concentration were placed on the sample injection tray of the instrument in sequence, and the program was set to inject samples respectively.
binder,measurement,setting,value
B1,EC50 (read off the curve),[1],~6 ng/mL
same,Kd,[2],0.455 nM
same,koff,[2],0.000111 s⁻¹
same,kon,[2],243000 M⁻¹ s⁻¹
